Measured values as given in patent US20170081400A1 (CEPHALON, published 2017).

Experiments:
[1] = target: T1, human TL1A extracellular domain with N-terminal HIS and FLAG tag (human, UniProt O95150 72-251); test: SPR Run 6, purified Ab captured on Protein A, TL1A 5 ug/mL, timepoint 44
T1 construct: the whole entry is named
T1 sequence: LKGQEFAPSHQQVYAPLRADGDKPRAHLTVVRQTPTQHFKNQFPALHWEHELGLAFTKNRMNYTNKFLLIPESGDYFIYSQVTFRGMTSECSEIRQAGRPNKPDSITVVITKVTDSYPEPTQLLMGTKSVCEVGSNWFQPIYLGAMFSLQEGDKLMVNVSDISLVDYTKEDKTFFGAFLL
Text: (§1) 1.5. Antibody expression and antigen binding as determined by SPR. Using a CM5 sensor chip (GE Healthcare) Protein A (Pierce) was coupled to the chip surface using an amine coupling kit (GE Healthcare). Protein A was coupled on flow cell 1 and 2 (or alternatively 3 and 4) using a BIACORE® T200. […] The amount of supernatant or purified protein (as well as the concentration) injected during the capture stage varied between runs and is specified in the header of the Tables 3-11. At the end of injection of the supernatant or purified antibody the change in response units was measured. This value was reported as Capture Level in Tables 3-11. […] The response units were measured prior to the end of the dissociation phase. […] The sensorgrams were double referenced (flow cell 2 is subtracted from flow cell 1 and a buffer blank). As there were a large number of antibody variants to screen, these were screened across different runs (Tables 3-11). […] A summary of the conditions used in each run is below:
(§2) 2.1. […] In some experiment the antibodies were purified using Protein A chromatography (See 1.4) and purified antibodies were used in BIACORE® (GE Healthcare) experiments.

[2] = target: T1, human TL1A extracellular domain with …; test: SPR Run 6, purified Ab captured on Protein A, TL1A 5 ug/mL, timepoint 170
Text: as §1, §2

[3] = target: T2, human TL1A extracellular domain with N-terminal HIS and FLAG tag (human) (UniProt O95150); test: cell-based or functional assay
T2 sequence: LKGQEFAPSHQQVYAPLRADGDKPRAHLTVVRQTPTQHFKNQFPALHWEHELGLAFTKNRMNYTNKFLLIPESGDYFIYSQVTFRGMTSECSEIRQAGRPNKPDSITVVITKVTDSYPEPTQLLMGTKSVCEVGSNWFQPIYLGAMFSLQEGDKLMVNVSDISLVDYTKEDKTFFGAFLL

[4] = target: T3, human TL1A extracellular domain with N-terminal HIS and FLAG tag (human, UniProt O95150 72-251); test: cell-based or functional assay
T3 sequence: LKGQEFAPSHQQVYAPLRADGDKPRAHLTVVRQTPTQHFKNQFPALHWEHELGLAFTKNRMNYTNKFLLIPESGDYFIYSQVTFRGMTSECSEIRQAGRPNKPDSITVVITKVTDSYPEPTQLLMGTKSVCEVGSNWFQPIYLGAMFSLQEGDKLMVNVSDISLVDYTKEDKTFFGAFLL

[5] = target: T3, human TL1A extracellular domain with …; test: SPR Run 7, antibody on Protein A, TL1A 5 ug/mL, timepoint 44
Summary of the method: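 Biacore T200 SPR with antibody (supernatant or Protein A-purified) captured on Protein A amine-coupled to a CM5 chip; capture level recorded as response change at end of capture.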

[6] = target: T3, human TL1A extracellular domain with …; test: SPR Run 7, antibody on Protein A, TL1A 5 ug/mL, timepoint 220
Summary of the method: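 Surface plasmon resonance on a Biacore T200 was used, with variants spread over several runs. Antibodies were captured via immobilized Protein A, and their capture level was recorded. Sensorgrams were double-referenced, and the antigen response was read near the end of dissociation.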

Binder	TL1A Binding Level (Early) [1]	TL1A Binding Level (Late) [2]	Antibody IC50, TL1A induced caspase potency assay in TF-1 cells [3]	Fold improvement over 320-179, TL1A induced caspase potency assay in TF-1 cells [3]	Antibody IC50, TL1A induced caspase potency assay in TF-1 cells [4]	Fold improvement over 320-179, TL1A induced caspase potency assay in TF-1 cells [4]	TL1A Binding Level (Early) [5]	TL1A Binding Level (Late) [6]
320-443 (antibody, human IgG1, name in Kabat numbering, V domains shown, human IgG1, lambda) VH: QVQLVQSGAEVKKPGASVKVSCKASGYTFTSKDINWVRQAPGQGLEWMGWLNPNSGNTGYAQKFQGRVTMTADRSTSTAYMELSSLRSEDTAVYYCAREVPETAAFEYWGQGTLVTVSS VL: QSVLTQPPSVSGAPGQRVTISCTSSSSDIGAGLGVHWYQQLPGTAPKLLIEGYYNRPSGVPDRFSGSKSGTSASLTITGLLPEDEGDYYCQSYDGTLSALFGGGTKLTVLG	114 RU	103 RU	0.06 µg/mL	1 fold				
320-267 (antibody, human IgG1, V domains shown) VH: QVQLVQSGAEVKKPGASVKVSCKASGYTFTSYDINWVRQAPGQGLEWMGWLNPNSGNTGYAQKFQGRVTMTADRSTSTAYMELSSLRSEDTAVYYCAREVPETAAFEYWGQGTLVTVSS VL: QSVLTQPPSVSGAPGQRVTISCTSSSSDIGAALGVHWYQQLPGTAPKLLIEGYYNRPSGVPDRFSGSKSGTSASLTITGLLPEDEGDYYCQSYDGTLSALFGGGTKLTVLG					0.01 µg/mL	4 fold		
320-277 (antibody, human IgG1, V domains shown) VH: QVQLVQSGAEVKKPGASVKVSCKASGYTFTSYDINWVRQAPGQGLEWMGWLNPNSGNTGYAQKFQGRVTMTADRSTSTAYMELSSLRSEDTAVYYCAREVPETAAFEYWGQGTLVTVSS VL: QSVLTQPPSVSGAPGQRVTISCTSSSSDIGAGSGVHWYQQLPGTAPKLLIEGYYNRPSGVPDRFSGSKSGTSASLTITGLLPEDEGDYYCQSYDGTLSALFGGGTKLTVLG					0.003 µg/mL	3 fold		
320-278 (antibody, human IgG1, V domains shown) VH: QVQLVQSGAEVKKPGASVKVSCKASGYTFTSYDINWVRQAPGQGLEWMGWLNPNSGNTGYAQKFQGRVTMTADRSTSTAYMELSSLRSEDTAVYYCAREVPETAAFEYWGQGTLVTVSS VL: QSVLTQPPSVSGAPGQRVTISCTSSSSDIGAGQGVHWYQQLPGTAPKLLIEGYYNRPSGVPDRFSGSKSGTSASLTITGLLPEDEGDYYCQSYDGTLSALFGGGTKLTVLG					0.01 µg/mL	2 fold		
320-445 (antibody, human IgG1, name in Kabat numbering, V domains shown, human IgG1, lambda) VH: QVQLVQSGAEVKKPGASVKVSCKASGYTFTSWDINWVRQAPGQGLEWMGWLNPNSGNTGYAQKFQGRVTMTADRSTSTAYMELSSLRSEDTAVYYCAREVPETAAFEYWGQGTLVTVSS VL: QSVLTQPPSVSGAPGQRVTISCTSSSSDIGAGLGVHWYQQLPGTAPKLLIEGYYNRPSGVPDRFSGSKSGTSASLTITGLLPEDEGDYYCQSYDGTLSALFGGGTKLTVLG	116 RU	106 RU	0.03 µg/mL	2 fold				
320-491 (antibody, human IgG1, name in Kabat numbering, V domains shown, human IgG1, lambda) VH: QVQLVQSGAEVKKPGASVKVSCKASGYTFTSYDINWVRQAPGQGLEWMGWSNPNSGNTGYAQKFQGRVTMTADRSTSTAYMELSSLRSEDTAVYYCAREVPETAAFEYWGQGTLVTVSS VL: QSVLTQPPSVSGAPGQRVTISCTSSSSDIGAGLGVHWYQQLPGTAPKLLIEGYYNRPSGVPDRFSGSKSGTSASLTITGLLPEDEGDYYCQSYDGTLSALFGGGTKLTVLG	85 RU	76 RU						
320-476 (antibody, human IgG1, name in Kabat numbering, V domains shown, human IgG1, lambda) VH: QVQLVQSGAEVKKPGASVKVSCKASGKTFTSYDINWVRQAPGQGLEWMGWLNPNSGNTGYAQKFQGRVTMTADRSTSTAYMELSSLRSEDTAVYYCAREVPETAAFEYWGQGTLVTVSS VL: QSVLTQPPSVSGAPGQRVTISCTSSSSDIGAGLGVHWYQQLPGTAPKLLIEGYYNRPSGVPDRFSGSKSGTSASLTITGLLPEDEGDYYCQSYDGTLSALFGGGTKLTVLG	128 RU	118 RU						
320-477 (antibody, human IgG1, name in Kabat numbering, V domains shown, human IgG1, lambda) VH: QVQLVQSGAEVKKPGASVKVSCKASGYTFTHYDINWVRQAPGQGLEWMGWLNPNSGNTGYAQKFQGRVTMTADRSTSTAYMELSSLRSEDTAVYYCAREVPETAAFEYWGQGTLVTVSS VL: QSVLTQPPSVSGAPGQRVTISCTSSSSDIGAGLGVHWYQQLPGTAPKLLIEGYYNRPSGVPDRFSGSKSGTSASLTITGLLPEDEGDYYCQSYDGTLSALFGGGTKLTVLG	148 RU	136 RU	0.03 µg/mL	1 fold				
320-547 (antibody, human IgG1, name in Kabat numbering, V domains shown, full-length human IgG1, lambda) VH: QVQLVQSGAEVKKPGASVKVSCKASGYTFTSYDINWVRQAPGQGLEWMGWLNPNSGYTGYAQKFQGRVTMTADRSTSTAYMELSSLRSEDTAVYYCAREVPETAAFEYWGQGTLVTVSS VL: QSVLTQPPSVSGAPGQRVTISCTSSSSDIGAGLGVHWYQQLPGTAPKLLIEGYYNRPSGVPDRFSGSKSGTSASLTITGLLPEDEGDYYCQSYDGTLSALFGGGTKLTVLG					0.004 µg/mL	10 fold	77 RU	75 RU
320-490 (antibody, human IgG1, name in Kabat numbering, V domains shown, human IgG1, lambda) VH: QVQLVQSGAEVKKPGASVKVSCKASGYTFTSYDINWVRQAPGQGLEWMGYLNPNSGNTGYAQKFQGRVTMTADRSTSTAYMELSSLRSEDTAVYYCAREVPETAAFEYWGQGTLVTVSS VL: QSVLTQPPSVSGAPGQRVTISCTSSSSDIGAGLGVHWYQQLPGTAPKLLIEGYYNRPSGVPDRFSGSKSGTSASLTITGLLPEDEGDYYCQSYDGTLSALFGGGTKLTVLG	14 RU	8 RU						
320-463 (antibody, human IgG1, name in Kabat numbering, V domains shown, human IgG1, lambda) VH: QVQLVQSGAEVKKPGASVKVSCKASGYTFTSYDIAWVRQAPGQGLEWMGWLNPNSGNTGYAQKFQGRVTMTADRSTSTAYMELSSLRSEDTAVYYCAREVPETAAFEYWGQGTLVTVSS VL: QSVLTQPPSVSGAPGQRVTISCTSSSSDIGAGLGVHWYQQLPGTAPKLLIEGYYNRPSGVPDRFSGSKSGTSASLTITGLLPEDEGDYYCQSYDGTLSALFGGGTKLTVLG	102 RU	101 RU	0.02 µg/mL	3 fold				
320-464 (antibody, human IgG1, name in Kabat numbering, V domains shown, human IgG1, lambda) VH: QVQLVQSGAEVKKPGASVKVSCKASGYTFTSYDISWVRQAPGQGLEWMGWLNPNSGNTGYAQKFQGRVTMTADRSTSTAYMELSSLRSEDTAVYYCAREVPETAAFEYWGQGTLVTVSS VL: QSVLTQPPSVSGAPGQRVTISCTSSSSDIGAGLGVHWYQQLPGTAPKLLIEGYYNRPSGVPDRFSGSKSGTSASLTITGLLPEDEGDYYCQSYDGTLSALFGGGTKLTVLG	130 RU	124 RU	0.03 µg/mL	2 fold				
320-478 (antibody, human IgG1, name in Kabat numbering, V domains shown, human IgG1, lambda) VH: QVQLVQSGAEVKKPGASVKVSCKASGYTFTSYDINWVRQAPGQGLEWMGWLNPNSGNTGYLQKFQGRVTMTADRSTSTAYMELSSLRSEDTAVYYCAREVPETAAFEYWGQGTLVTVSS VL: QSVLTQPPSVSGAPGQRVTISCTSSSSDIGAGLGVHWYQQLPGTAPKLLIEGYYNRPSGVPDRFSGSKSGTSASLTITGLLPEDEGDYYCQSYDGTLSALFGGGTKLTVLG	85 RU	77 RU						
320-480 (antibody, human IgG1, name in Kabat numbering, V domains shown, human IgG1, lambda) VH: QVQLVQSGAEVKKPGASVKVSCKASGYTFTSYDINWVRQAPGQGLEWMGWLNPNSGNTGYYQKFQGRVTMTADRSTSTAYMELSSLRSEDTAVYYCAREVPETAAFEYWGQGTLVTVSS VL: QSVLTQPPSVSGAPGQRVTISCTSSSSDIGAGLGVHWYQQLPGTAPKLLIEGYYNRPSGVPDRFSGSKSGTSASLTITGLLPEDEGDYYCQSYDGTLSALFGGGTKLTVLG	79 RU	73 RU						
320-479 (antibody, human IgG1, name in Kabat numbering, V domains shown, human IgG1, lambda) VH: QVQLVQSGAEVKKPGASVKVSCKASGYTFTSYDINWVRQAPGQGLEWMGWLNPNSGNTGYWQKFQGRVTMTADRSTSTAYMELSSLRSEDTAVYYCAREVPETAAFEYWGQGTLVTVSS VL: QSVLTQPPSVSGAPGQRVTISCTSSSSDIGAGLGVHWYQQLPGTAPKLLIEGYYNRPSGVPDRFSGSKSGTSASLTITGLLPEDEGDYYCQSYDGTLSALFGGGTKLTVLG	61 RU	54 RU						
